Measurements: the supplement of paper PMC9876800

System: peptide library, one residue held at a place counted from the S/T acceptor
Experiment: relative phosphorylation of the sub-library (ratio to the mean residue at this position); higher = residue favoured
Outline: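 Purified recombinant kinases (human or orthologue constructs) were incubated in 384-well plates with biotinylated degenerate peptide sub-libraries, each fixing one residue at one position around a central Ser/Thr. Peptides were at 50 μM, with 50 μM ATP spiked with γ-32P-ATP, for 90 min under kinase-specific conditions. Spots on streptavidin membranes were phosphorimaged and quantified by densitometry. Relative sub-library phosphorylation is a ratio to the mean residue at that position.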

Sequence of TAOK3, construct: Full length with a 14aa C-terminal extension from Gateway cloning, human (Q9H2K8 whole entry, looked up): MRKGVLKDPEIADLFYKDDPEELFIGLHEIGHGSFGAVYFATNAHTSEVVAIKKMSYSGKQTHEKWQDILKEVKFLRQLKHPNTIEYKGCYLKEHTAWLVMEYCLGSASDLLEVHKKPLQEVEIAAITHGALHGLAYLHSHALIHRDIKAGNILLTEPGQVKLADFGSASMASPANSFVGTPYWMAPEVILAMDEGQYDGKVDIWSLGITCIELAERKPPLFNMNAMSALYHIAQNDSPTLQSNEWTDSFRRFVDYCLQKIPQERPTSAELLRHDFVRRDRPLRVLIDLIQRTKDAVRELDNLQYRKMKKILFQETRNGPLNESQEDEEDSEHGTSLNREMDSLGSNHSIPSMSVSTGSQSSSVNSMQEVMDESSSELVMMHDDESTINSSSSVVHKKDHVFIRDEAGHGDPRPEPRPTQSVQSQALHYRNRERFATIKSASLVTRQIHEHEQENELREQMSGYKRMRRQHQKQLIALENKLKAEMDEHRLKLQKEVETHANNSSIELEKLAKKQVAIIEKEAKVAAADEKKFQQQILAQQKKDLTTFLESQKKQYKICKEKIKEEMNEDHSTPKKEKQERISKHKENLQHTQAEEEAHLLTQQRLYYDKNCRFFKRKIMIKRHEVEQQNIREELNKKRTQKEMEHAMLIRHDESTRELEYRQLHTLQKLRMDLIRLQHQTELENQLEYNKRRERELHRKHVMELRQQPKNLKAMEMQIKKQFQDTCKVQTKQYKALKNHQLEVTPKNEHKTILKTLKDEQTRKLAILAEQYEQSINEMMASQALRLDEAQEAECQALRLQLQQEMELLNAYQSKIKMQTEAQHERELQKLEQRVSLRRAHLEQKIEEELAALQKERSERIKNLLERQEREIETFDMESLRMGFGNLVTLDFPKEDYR
Sequence of VRK1, construct: Full length, human (Q99986 whole entry, looked up): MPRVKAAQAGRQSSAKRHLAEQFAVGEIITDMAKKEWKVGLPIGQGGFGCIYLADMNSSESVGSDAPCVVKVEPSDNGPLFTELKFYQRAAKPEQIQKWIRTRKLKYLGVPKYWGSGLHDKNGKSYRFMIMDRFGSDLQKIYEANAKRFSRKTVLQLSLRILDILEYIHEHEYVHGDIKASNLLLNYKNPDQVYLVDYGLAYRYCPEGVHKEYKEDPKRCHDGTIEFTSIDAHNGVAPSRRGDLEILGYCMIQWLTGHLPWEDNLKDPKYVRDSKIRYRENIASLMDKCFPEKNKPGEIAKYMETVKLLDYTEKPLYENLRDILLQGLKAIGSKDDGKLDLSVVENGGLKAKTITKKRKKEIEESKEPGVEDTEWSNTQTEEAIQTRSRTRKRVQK

VRK1, construct: Full length, human (from UniProt Q99986)
relative phosphorylation
Conditions	at +1	at +2	at +3	at +4	at -1	at -2	at -3	at -4	at -5
A fixed	0.79	0.924	1.23	0.978	0.758	1.02	1.09	1.03	1.08
D fixed	0.363	0.406	0.525	0.96	0.661	0.802	0.824	0.886	0.865
E fixed	0.548	0.393	0.461	0.739	0.608	0.645	0.81	0.927	0.837
F fixed	0.972	0.746	0.877	1.01	1.04	0.8	0.902	1.02	1.01
G fixed	0.532	0.549	1.7	1.31	0.648	2.31	1.45	1.34	1.34
H fixed	0.951	0.83	1.79	1.03	1.17	1.21	1.15	1.15	1.01
I fixed	0.921	1.63	0.573	0.884	1.31	0.622	0.772	0.859	0.822
K fixed	1.4	1.45	0.815	0.87	0.984	0.759	1.02	0.865	0.88
L fixed	0.642	1.22	0.637	0.985	1.33	0.764	0.745	0.796	0.646
M fixed	1.11	1.67	0.865	1.06	1.06	0.946	0.862	0.916	0.835
N fixed	0.724	0.64	1.65	0.997	0.843	1.38	0.982	1.06	0.919
P fixed	0.305	0.423	0.456	0.688	0.738	1.25	1.28	1.02	1.21
Q fixed	1.4	1.34	0.988	0.952	0.977	1.19	1.03	0.962	1.01
R fixed	2.6	1.2	1.22	1.33	1.03	1.01	1.3	0.978	1.23
V fixed	1.39	2.09	0.723	0.75	1.53	0.616	0.848	0.97	1.02
W fixed	1.15	0.695	1.2	1.32	1.02	0.815	0.931	1.14	1.13
Y fixed	1.19	0.795	1.29	1.14	1.3	0.856	0.999	1.07	1.16
pThr fixed	0.771	0.821	0.698	0.728	0.751	0.781	0.938	0.862	0.958
pTyr fixed	0.752	0.601	0.942	1.37	1.03	0.723	1	0.967	1.05

TAOK3, construct: Full length with a 14aa C-terminal extension from Gateway cloning, human (from UniProt Q9H2K8)
relative phosphorylation
Conditions	at +1	at +2	at +3	at +4	at -1	at -2	at -3	at -4	at -5
A fixed	0.522	0.851	0.743	0.866	0.788	1.15	0.775	1.01	1.16
D fixed	0.371	0.801	0.592	0.65	0.99	1.03	0.879	1.47	1.59
E fixed	0.343	0.54	0.547	0.658	0.546	0.718	0.916	1.54	1.36
F fixed	1.34	0.424	0.68	0.771	0.709	1.35	0.543	0.663	0.81
G fixed	0.605	0.943	1.38	1.11	2.03	1.43	1.4	1.27	1.17
H fixed	0.973	1.21	1.19	1.18	1.28	0.92	0.95	1.04	1.09
I fixed	1.52	0.593	0.578	0.859	0.3	0.508	0.416	0.497	0.596
K fixed	0.647	2.32	2.11	1.76	1.54	0.836	2.45	1.15	1.35
L fixed	1.63	0.507	0.707	0.681	0.717	0.526	0.445	0.536	0.627
M fixed	1.52	0.612	0.606	0.718	0.911	0.805	0.566	0.682	0.629
N fixed	0.595	1.73	1.08	0.891	1.61	1.15	1.28	1.42	1.23
P fixed	0.551	1.09	1.14	0.945	0.707	1.17	1.23	1.38	0.984
Q fixed	0.685	0.941	0.987	1.04	1.08	0.856	1.12	1.12	0.961
R fixed	0.583	2.5	2.29	1.62	1.37	0.959	1.73	1.11	1.13
V fixed	1.05	0.659	0.558	0.753	0.373	0.541	0.459	0.562	0.634
W fixed	2.79	0.578	0.971	1.19	0.807	0.932	0.832	0.819	0.92
Y fixed	1.28	0.704	0.854	1.31	1.24	2.12	1	0.726	0.781
pThr fixed	0.887	0.729	0.858	0.782	0.588	1.11	1.23	1.49	1.36
pTyr fixed	0.719	0.757	0.752	0.848	2.28	1.3	1.18	1.33	1.47
